# Data published in patent US20240390468A1, “SURVIVIN AND MAGE-A9 DUAL-TARGETED IMMUNOTHERAPY” (IMMUNOVACCINE TECHNOLOGIES INC., priority 2022, published 2024).
# Tested on: splenocytes of A2/DR1 mice
# Experiment: IFN-γ ELISA after stimulation of spleen cells with peptides
# Assay type: cell-based
# Experimental: FIG. 25 depicts cytokine response upon stimulation with reactive HLA-A2 MAGE-A9 peptides. Groups of three A2/DR1 mice were either not immunized (naive mice) or immunized twice with a pool of four reactive peptides in CTL assays (M9-A2-24; M9-A2-111; M9-A2-223; M9-A2-270) or with adjuvants only, as control. Mice were sacrificed after 28 days and spleens were collected for isolation of splenocytes. Splenocytes were restimulated for 72 h with either individual peptides or the peptide pool. Supernatant was collected and assayed by ELISA for secretion of murine INF-7. Bars represent mean of triplicate plus or minus standard deviation (SD). Tukey's multiple comparisons test was used to determine adjusted p values. *=p<0.05, **=p<0.01, ***=p<0.001, ****=p<0.0001.
# INF-γ secreted after stimulation of spleen cells with the four peptides were tested by ELISA.
# Supernatants from cultures of whole splenocytes stimulated with the irradiated splenocytes loaded with the peptides were collected after 72 hours of stimulation and the amounts of IFN-γ were estimated by sandwich ELISA using the mouse IFN-γ ELISA Max set Deluxe kit (BioLegend, San Diego, CA).
molecule,measurement,value
"recombinant MAGE-A9: his-tag MAGE-A9 full-length recombinant protein used as immunogen admixed with poly(I:C) (protein, UniProt P43362 1-315, looked up, full-length His tag) MSLEQRSPHCKPDEDLEAQGEDLGLMGAQEPTGEEEETTSSSDSKEEEVSAAGSSSPPQSPQGGASSSISVYYTLWSQFDEGSSSQEEEEPSSSVDPAQLEFMFQEALKLKVAELVHFLLHKYRVKEPVTKAEMLESVIKNYKRYFPVIFGKASEFMQVIFGTDVKEVDPAGHSYILVTALGLSCDSMLGDGHSMPKAALLIIVLGVILTKDNCAPEEVIWEALSVMGVYVGKEHMFYGEPRKLLTQDWVQENYLEYRQVPGSDPAHYEFLWGSKAHAETSYEKVINYLVMLNAREPICYPSLYEEVLGEEQEGV",subtype of T cells induced after immunization,Th1 subtype
